Test results taken from US20140221611A1.
Positions of bridges follow the written chain, without caps; N, C: chain ends. No end group written: not given here. *: point of attachment. NHNH2 = NN*

What was measured:
[1] = biological target: REFACTO® factor VIII-like polypeptide (amino acids 1-743 and 1638 through 2332 of human factor VIII) (human) (UniProt P00451); test: affinity column of immobilised peptide; fractions by RP-HPLC
[2] = biological target: REFACTO® factor VIII-like polypeptide (amino acids 1-743 and 1638 through 2332 of human factor VIII) (human) (UniProt P00451); test: affinity column of immobilised peptide; fractions by factor VIII activity assay
[3] = biological target: REFACTO® factor VIII-like polypeptide (amino acids 1-743 and 1638 through 2332 of human factor VIII) (human) (UniProt P00451); test: phage ELISA
[4] = biological target: REFACTO® factor VIII-like polypeptide (amino acids 1-743 and 1638 through 2332 of human factor VIII) (human) (UniProt P00451); test: phage ELISA, anti-M13-HRP

Sequence of REFACTO® factor VIII-like polypeptide (amino acids 1-743 and 1638 through 2332 of human factor VIII) (human) (P00451 20-762, chain 1 of 2): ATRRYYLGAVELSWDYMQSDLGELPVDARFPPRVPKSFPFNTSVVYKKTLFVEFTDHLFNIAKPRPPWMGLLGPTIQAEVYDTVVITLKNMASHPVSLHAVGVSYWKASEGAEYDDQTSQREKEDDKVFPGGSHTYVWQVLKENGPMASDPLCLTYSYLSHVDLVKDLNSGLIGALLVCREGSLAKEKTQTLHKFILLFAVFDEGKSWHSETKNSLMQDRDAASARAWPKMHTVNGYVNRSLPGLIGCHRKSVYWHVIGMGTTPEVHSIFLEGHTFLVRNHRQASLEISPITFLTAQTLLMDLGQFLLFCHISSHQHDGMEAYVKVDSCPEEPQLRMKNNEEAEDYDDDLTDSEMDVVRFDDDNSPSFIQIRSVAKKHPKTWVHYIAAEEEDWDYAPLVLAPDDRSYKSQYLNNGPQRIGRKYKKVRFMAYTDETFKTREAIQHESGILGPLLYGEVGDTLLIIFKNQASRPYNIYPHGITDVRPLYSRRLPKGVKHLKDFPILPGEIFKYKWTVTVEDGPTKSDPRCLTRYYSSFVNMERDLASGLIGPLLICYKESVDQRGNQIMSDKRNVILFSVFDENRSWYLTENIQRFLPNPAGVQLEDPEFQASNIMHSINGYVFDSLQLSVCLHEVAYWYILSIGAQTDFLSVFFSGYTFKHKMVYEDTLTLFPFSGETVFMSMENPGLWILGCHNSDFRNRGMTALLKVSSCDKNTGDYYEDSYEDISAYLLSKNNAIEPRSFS
Sequence of REFACTO® factor VIII-like polypeptide (amino acids 1-743 and 1638 through 2332 of human factor VIII) (human) (P00451 1657-2351, chain 2 of 2): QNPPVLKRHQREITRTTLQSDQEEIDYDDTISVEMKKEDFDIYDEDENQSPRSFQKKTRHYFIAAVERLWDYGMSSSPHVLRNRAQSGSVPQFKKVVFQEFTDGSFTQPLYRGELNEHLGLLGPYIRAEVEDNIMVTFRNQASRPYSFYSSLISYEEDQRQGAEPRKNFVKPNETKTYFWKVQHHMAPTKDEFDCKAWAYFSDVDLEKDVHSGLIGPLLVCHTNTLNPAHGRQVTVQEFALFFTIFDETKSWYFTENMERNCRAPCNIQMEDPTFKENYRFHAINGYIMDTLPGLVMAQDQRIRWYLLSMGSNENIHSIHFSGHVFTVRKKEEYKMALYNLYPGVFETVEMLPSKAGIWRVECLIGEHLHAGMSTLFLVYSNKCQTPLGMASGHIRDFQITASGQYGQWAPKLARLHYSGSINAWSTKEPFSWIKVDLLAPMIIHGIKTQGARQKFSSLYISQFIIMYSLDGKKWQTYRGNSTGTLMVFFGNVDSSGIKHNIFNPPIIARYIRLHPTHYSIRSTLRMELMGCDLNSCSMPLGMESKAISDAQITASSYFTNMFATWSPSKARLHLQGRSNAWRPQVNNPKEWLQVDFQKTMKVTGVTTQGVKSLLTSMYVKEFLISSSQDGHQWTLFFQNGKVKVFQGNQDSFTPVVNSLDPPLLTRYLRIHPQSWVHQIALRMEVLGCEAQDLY

Row | Binder | R (ratio of the ELISA score with target present to the ELISA score without target) [3] | ELISA signal [4] [OD630] | further results
1 | AEGTGDHLCGAWFRPCDADPGPEGGGS-NHNH2 (disulfide 9-16 (inferred)) [Affinity ligand CS-454] |  |  | % recovery in Elution A [1]: 45.1%; % recovery in Elution B [1]: 0%; % recovery in Flow [1]: 2.5%; % recovery in pH 2 [1]: 0%; % recovery in Elution A [2]: 42.4%; % recovery in Flow [2]: 2.2%
2 | RLCSWVSPCSA [TN7 isolate C5/G10 (phage-displayed peptide, SEQ ID NO: 9)] | 10 | 0.5 | 
3 | AEGTGDHPCGSWLRPCLHDPGPEGGGS-NHNH2 (disulfide 9-16 (inferred)) [Affinity ligand CS-453] |  |  | % recovery in Elution A [1]: 43.2%; % recovery in Elution B [1]: 0%; % recovery in Flow [1]: 0%; % recovery in pH 2 [1]: 0%; % recovery in Elution A [2]: 26.4%; % recovery in Flow [2]: 0%
4 | FCWVFNWVHCD [TN9/1 isolate … (SEQ ID NO: 75)] | 14 |  | 
5 | HLCFAWFRPCDA [TN8 isolate 12 (phage-displayed peptide, SEQ ID NO: 17)] | 8 | 0.4 | 
6 | HGCGAWFRPCHA [TN8 isolate 01 (phage-displayed peptide, SEQ ID NO: 18)] |  | 0.2 | 
7 | AEGTGDFGCSWLFPCPFDPGPEGGGS-NHNH2 (disulfide 9-15 (inferred)) [Affinity ligand CS-456] |  |  | % recovery in Elution A [1]: 44.8%; % recovery in Elution B [1]: 0%; % recovery in Flow [1]: 3.4%; % recovery in pH 2 [1]: 0%; % recovery in Elution A [2]: 43%; % recovery in Flow [2]: 4.8%
8 | HPCGAWLRPCYN [TN8 isolate 08 (phage-displayed peptide, SEQ ID NO: 20)] | 20 | 1 | 
9 | FGCSWLFPCPF [TN7 isolate A08 (phage-displayed peptide, SEQ ID NO: 5)] | 8 | 0.4 | 
10 | HPCGSWLHPCAA [TN8 isolate 04 (phage-displayed peptide, SEQ ID NO: 12)] | 6 | 0.3 | 
11 | HPCGSWFRPCFH [TN8 isolate 02 (phage-displayed peptide, SEQ ID NO: 14)] | 16 | 0.7 | 
12 | FCWVHPFAHCL [TN9 isolate 02 (phage-displayed peptide, SEQ ID NO: 23)] |  | 0.2 | 
13 | FCWVFAFDHCH [TN9/1 isolate … (SEQ ID NO: 71)] | 24 |  | 
14 | FCWVFQFRHCH [TN9/1 isolate … (SEQ ID NO: 77)] | 8 |  | 
15 | FCWVFNFSHCS [TN9 isolate 03 (phage-displayed peptide, SEQ ID NO: 26)] | 24 | 1.1 | 
16 | HPCGAWFNPCPR [TN8 isolate 01 (phage-displayed peptide, SEQ ID NO: 19)] |  | 0.2 | 
17 | FHCIGVWFCLH [TN7 isolate A09 (phage-displayed peptide, SEQ ID NO: 8)] |  | 0.1 | 
18 | HLCGAWFRPCDA [TN8 isolate 02 (phage-displayed peptide, SEQ ID NO: 16)] | 6 | 0.4 | 
19 | AEGTGDFCWVFPFQHCADPGPEGGGS-NHNH2 (disulfide 8-16 (inferred)) [Affinity ligand CS-459] |  |  | % recovery in Elution A [1]: 42.1%; % recovery in Elution B [1]: 0%; % recovery in Flow [1]: 1.6%; % recovery in pH 2 [1]: 0%; % recovery in Elution A [2]: 31.2%; % recovery in Flow [2]: 6.4%

Row | Binder | R (ratio of the ELISA score with target present to the ELISA score without target) [3] | ELISA signal [4] [OD630] | further results
20 | PHCNWLFPCSL [TN7 isolate D03 (phage-displayed peptide, SEQ ID NO: 6)] |  | 0.2 | 
21 | FCWVFPFNHCS [TN9 isolate 12 (phage-displayed peptide, SEQ ID NO: 28)] | 18 | 1 | 
22 | FCWVFPFHHCF [TN9 isolate 06 (phage-displayed peptide, SEQ ID NO: 30)] | 6 | 0.3 | 
23 | AEGTGDFHCIGVWFCLHDPGPEGGGS-NHNH2 (disulfide 9-15 (inferred)) [Affinity ligand CS-455] |  |  | % recovery in Elution A [1]: 1.4%; % recovery in Elution B [1]: 0%; % recovery in Flow [1]: 65.8%; % recovery in pH 2 [1]: 0%; % recovery in Elution A [2]: 1.3%; % recovery in Flow [2]: 61.6%
24 | HACGSWFRPCHA [TN8 isolate 07 (phage-displayed peptide, SEQ ID NO: 15)] | 6 | 0.4 | 
25 | HSCGSWLFPCFA [TN7 isolate A06 (phage-displayed peptide, SEQ ID NO: 4)] | 10 | 0.5 | 
26 | FCHVFPFLHCD [TN9 isolate 11 (phage-displayed peptide, SEQ ID NO: 32)] |  | 0.2 | 
27 | FCHVFNFVHCS [TN9 isolate 01 (phage-displayed peptide, SEQ ID NO: 31)] | 8 | 0.5 | 
28 | FCHVFHFSHCD [TN9 isolate 01 (phage-displayed peptide, SEQ ID NO: 24)] |  | 0.2 | 
29 | HPCGSWFNPCAH [TN8 isolate 02 (phage-displayed peptide, SEQ ID NO: 13)] | 8 | 0.3 | 
30 | HRCGSWLHPCLA [TN8 isolate 11/G10 (phage-displayed peptide, SEQ ID NO: 21)] | 6 | 0.3 | 
31 | RLCSWISPCSA [TN7 isolate D04 (phage-displayed peptide, SEQ ID NO: 7)] | 6 | 0.3 | 
32 | AEGTGDFCWVFAFDHCHDPGPEGGGS-NHNH2 (disulfide 8-16 (inferred)) [Affinity ligand CS-458] |  |  | % recovery in Elution A [1]: 54.3%; % recovery in Elution B [1]: 0%; % recovery in Flow [1]: 1.8%; % recovery in pH 2 [1]: 0%; % recovery in Elution A [2]: 55.6%; % recovery in Flow [2]: 1.4%
33 | AEGTGDFCWVFPFHHCFDPGPEGGGS-NHNH2 (disulfide 8-16 (inferred)) [Affinity ligand CS-460] |  |  | % recovery in Elution A [1]: 28.8%; % recovery in Elution B [1]: 0%; % recovery in Flow [1]: 24.6%; % recovery in pH 2 [1]: 0%; % recovery in Elution A [2]: 0%; % recovery in Flow [2]: 28.4%
34 | FCWVFPFNHCD [TN9 isolate 02 (phage-displayed peptide, SEQ ID NO: 27)] | 8 | 0.4 | 
35 | FCWVFPFQHCA [TN9 isolate 09 (phage-displayed peptide, SEQ ID NO: 29)] | 24 | 1.1 | 
36 | RGCGSWLRPCLD [TN8 isolate 05 (phage-displayed peptide, SEQ ID NO: 11)] |  | 0.2 | 
37 | HPCGSWLRPCLH [TN8 isolate 10 (phage-displayed peptide, SEQ ID NO: 10)] | 16 | 1 | 
